The target in this test is T1, full-length beta-catenin (UniProt P35222 2-781, limits assumed).
T1 construct: mature; also called full-length ß-Catenin; β-catenin
T1 sequence (looked up): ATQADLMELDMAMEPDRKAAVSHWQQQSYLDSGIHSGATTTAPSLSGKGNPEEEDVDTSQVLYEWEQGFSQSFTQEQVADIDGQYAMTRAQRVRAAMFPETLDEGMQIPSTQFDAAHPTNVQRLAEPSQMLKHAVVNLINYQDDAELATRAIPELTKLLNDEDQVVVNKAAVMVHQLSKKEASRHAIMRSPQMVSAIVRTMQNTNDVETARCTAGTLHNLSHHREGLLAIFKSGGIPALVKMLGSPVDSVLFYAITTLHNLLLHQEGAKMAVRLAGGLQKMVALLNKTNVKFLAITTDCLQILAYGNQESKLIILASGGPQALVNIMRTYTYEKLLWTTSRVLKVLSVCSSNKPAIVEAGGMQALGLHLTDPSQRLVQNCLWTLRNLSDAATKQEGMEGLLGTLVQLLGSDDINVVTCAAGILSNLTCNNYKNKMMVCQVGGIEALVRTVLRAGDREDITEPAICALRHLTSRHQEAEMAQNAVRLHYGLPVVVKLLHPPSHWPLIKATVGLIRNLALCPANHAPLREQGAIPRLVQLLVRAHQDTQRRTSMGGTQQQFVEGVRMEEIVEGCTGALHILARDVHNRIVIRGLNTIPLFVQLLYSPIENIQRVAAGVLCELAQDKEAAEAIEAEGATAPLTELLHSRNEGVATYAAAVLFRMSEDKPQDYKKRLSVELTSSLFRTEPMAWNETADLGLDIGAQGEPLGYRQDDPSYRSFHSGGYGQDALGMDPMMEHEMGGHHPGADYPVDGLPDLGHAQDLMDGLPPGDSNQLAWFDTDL
The test can be described thus: competition FP; NB = no binding detected. As for the experimental part:
In some embodiments, a competition fluorescence polarization assay is used to assess binding of provided compounds to beta-catenin. In an exemplary procedure, solutions of provided compounds, e.g., provided stapled peptides, were prepared in a buffer (e.g., 50 mM Tris pH 8.0, 250 mM NaCl, 2% glycerol, 0.5 mM EDTA, 0.02% w/v sodium azide) using a 3-fold serial dilution from 5 µM. Probe solution (15 nM full-length ß-Catenin, 20 nM FITC labeled peptide in buffer) was prepared and incubated for a period of time, e.g., 5 minutes, and the a volume, e.g., 40 µL per well plated in suitable plate, e.g., a black polystyrene 384-well plate (Corning). Equal volume of the serial diluted peptide was added to the plate and incubated protected from light for 15 minutes prior to read. Reads were performed on a Spectramax M5 (Molecular Devices) in duplicate. Suitable probe was FITC-PEG1-PQ-S5-ILD-S5-HVRRVWR (SEQ ID NO: 1) (hydrocarbon staple formed by two S5 via olefin metathesis) and/or FITC-bA-PQ-S5-ILD-S5-HVRRVWR (SEQ ID NO: 3) (hydrocarbon staple formed by two S5 via olefin metathesis). […] Another peptide, FPO217c (Ac-AR_8ILDAHIM$B5$RVW (SEQ ID NO: 280), with N-terminal proline removed and valine replaced with isoleucine compared to FP0025c) was prepared.

Numbered stars: 1 amine (or outer) side, 2 acyl side, 3 side chain; on linkers, the order of the positions; unused ones are H or OH. Bridge positions count the residues as written; N and C are the ends. Square brackets hold non-standard residues; d marks the D form. Primed or numbered codes have the meaning given here. MB(4) = Monomer B (PyrS), N-Alloc pyrrolidine stapling residue, (S)-3-amino-1-(allyloxycarbonyl)pyrrolidine-3-carboxylic acid, C=CCOC(=O)N1CC[C@@](N[*:1])(C(=O)[*:2])C1; MB(8) = Monomer B (PyrS), pyrrolidine stapling residue bearing N-allyl carbamate (Alloc), forms carbamate staple with R8 by ring-closing olefin metathesis, i to i+7; MB″ = Monomer B (PyrS), pyrrolidine stapling residue with N-allyl carbamate, forms carbamate staple with R8 by olefin metathesis; MB(6) = Monomer B (PyrS), N-Alloc pyrrolidine stapling residue, forms carbamate staple with R8 by olefin metathesis; Tyr(OMe) = O-methyl tyrosine (source code MeY), COc1ccc(C[C@H](N[*:1])C(=O)[*:2])cc1; MB(5) = Monomer B (PyrS), N-Alloc pyrrolidine stapling residue; Ala(2-furyl) = N[C@@H](Cc1ccco1)C(=O)O; Ala(cPr) = N[C@@H](CC1CC1)C(=O)O; 2Pal = N[C@@H](Cc1ccccn1)C(=O)O; 3Pal = N[C@@H](Cc1cccnc1)C(=O)O; R8 = C=CCCCCCC[C@@](C)(N)C(=O)O; 2Thi = N[C@@H](Cc1cccs1)C(=O)O; Cha = N[C@@H](CC1CCCCC1)C(=O)O; Cba = N[C@@H](CC1CCC1)C(=O)O; Tle = CC(C)(C)[C@H](N)C(=O)O; cpa = 3-cyclopropylalanine; Nva = CCC[C@H](N)C(=O)O

With Ac-A[R8]ILDA[2Pal]I[MB(8)]TVW-NH2 (staple 2-9; not fully specified; printed as Ac-A-R8-I-L-D-A-2pyr-I-MB-T-V-W-NH2) [FP0561c Isomer 2], the binding result is “no binding”.

B1: FP0568c Isomer 2 (peptide)
peptide: Ac-A[R8]ILDA[2Pal]I[MB(6)][Tle]VW-NH2
modifications: staple 2-9; not fully specified; printed as Ac-A-R8-I-L-D-A-2pyr-I-MB-tLeu-V-W-NH2
With B1, the binding result is “no binding”.
To Ac-A[R8]ILDA[2Pal]I[MB″]YVW-NH2 (staple 2-9; not fully specified; printed as Ac-A-R8-I-L-D-A-2pyr-I-MB-Y-V-W-NH2) [FP0564c Isomer 1] belongs “no binding”.

B2: FP0574c Isomer 2 (peptide)
peptide: Ac-A[R8]ILDA[2Pal]I[MB(4)][cpa]VW-NH2
modifications: staple 2-9; not fully specified; printed as Ac-A-R8-I-L-D-A-2pyr-I-MB-cpa-V-W-NH2
With B2, the binding result is “no binding”.
To Ac-A[R8]ILDA[2Pal]I[MB″]YVW-NH2 (staple 2-9; not fully specified; printed as Ac-A-R8-I-L-D-A-2pyr-I-MB-Y-V-W-NH2) [FP0564c Isomer 2] belongs “no binding”.

B3: FP0565c Isomer 2 (peptide)
peptide: Ac-A[R8]ILDA[2Pal]I[MB(6)][Cba]VW-NH2
modifications: staple 2-9; not fully specified; printed as Ac-A-R8-I-L-D-A-2pyr-I-MB-Cba-V-W-NH2
For B3, the binding result was “no binding”.

B4: FP0566c Isomer 1 (peptide)
peptide: Ac-A[R8]ILDA[2Pal]I[MB(6)][Cha]VW-NH2
modifications: staple 2-9; not fully specified; printed as Ac-A-R8-I-L-D-A-2pyr-I-MB-Cha-V-W-NH2
For the molecule B4, the binding result was “no binding”.

B5: FP0568c Isomer 1 (peptide)
peptide: Ac-A[R8]ILDA[2Pal]I[MB(6)][Tle]VW-NH2
modifications: staple 2-9; not fully specified; printed as Ac-A-R8-I-L-D-A-2pyr-I-MB-tLeu-V-W-NH2
As for B5, the binding result is “no binding”.

B6: FP0573c Isomer 2 (peptide)
peptide: Ac-A[R8]ILDA[2Pal]I[MB(5)][3Pal]VW-NH2
modifications: staple 2-9; not fully specified; printed as Ac-A-R8-I-L-D-A-2pyr-I-MB-3pyr-V-W-NH2
As for B6, the binding result is listed as “no binding”.

B7: FP0571c Isomer 1 (peptide)
peptide: Ac-A[R8]ILDA[2Pal]I[MB(6)][2Thi]VW-NH2
modifications: staple 2-9; not fully specified; printed as Ac-A-R8-I-L-D-A-2pyr-I-MB-thi-V-W-NH2
For the molecule B7, the binding result is “no binding”.

B8: FP0565c Isomer 1 (peptide)
peptide: Ac-A[R8]ILDA[2Pal]I[MB″][Cba]VW-NH2
modifications: staple 2-9; not fully specified; printed as Ac-A-R8-I-L-D-A-2pyr-I-MB-Cba-V-W-NH2
In the case of B8, the binding result was “no binding”.

B9: FP0569c Isomer 1 (peptide)
peptide: Ac-A[R8]ILDA[2Pal]I[MB(6)][Ala(2-furyl)]VW-NH2
modifications: staple 2-9; not fully specified; printed as Ac-A-R8-I-L-D-A-2pyr-I-MB-fur-V-W-NH2
On to B9, for which the binding result is listed as “no binding”.
To Ac-A[R8]ILDA[2Pal]I[MB(8)]VVW-NH2 (staple 2-9; not fully specified; printed as Ac-A-R8-I-L-D-A-2pyr-I-MB-V-V-W-NH2) [FP0562c Isomer 2] belongs “no binding”.

B10: FP0567c Isomer 1 (peptide)
peptide: Ac-A[R8]ILDA[2Pal]I[MB(6)][Nva]VW-NH2
modifications: staple 2-9; not fully specified; printed as Ac-A-R8-I-L-D-A-2pyr-I-MB-Nva-V-W-NH2
As for B10, the binding result is “no binding”.
To Ac-A[R8]ILDA[2Pal]I[MB(8)]VVW-NH2 (staple 2-9; not fully specified; printed as Ac-A-R8-I-L-D-A-2pyr-I-MB-V-V-W-NH2) [FP0562c Isomer 1] belongs “no binding”.

B11: FP0575c Isomer 2 (peptide)
peptide: Ac-A[R8]ILDA[2Pal]I[MB(4)][Tyr(OMe)]VW-NH2
modifications: staple 2-9; not fully specified; printed as Ac-A-R8-I-L-D-A-2pyr-I-MB-MeY-V-W-NH2
For the molecule B11, the binding result was “no binding”.

B12: FP0573c Isomer 1 (peptide)
peptide: Ac-A[R8]ILDA[2Pal]I[MB(5)][3Pal]VW-NH2
modifications: staple 2-9; not fully specified; printed as Ac-A-R8-I-L-D-A-2pyr-I-MB-3pyr-V-W-NH2
As for B12, the binding result was “no binding”.

B13: FP0572c Isomer 1 (peptide)
peptide: Ac-A[R8]ILDA[2Pal]I[MB(5)][2Pal]VW-NH2
modifications: staple 2-9; not fully specified; printed as Ac-A-R8-I-L-D-A-2pyr-I-MB-2pyr-V-W-NH2
For B13, the binding result is given as “no binding”.
Turning to Ac-A[R8]ILDA[2Pal]I[MB″]WVW-NH2 (staple 2-9; not fully specified; printed as Ac-A-R8-I-L-D-A-2pyr-I-MB-W-V-W-NH2) [FP0563c Isomer 1], the binding result is “no binding”.

B14: FP0574c Isomer 1 (peptide)
peptide: Ac-A[R8]ILDA[2Pal]I[MB(5)][Ala(cPr)]VW-NH2
modifications: staple 2-9; not fully specified; printed as Ac-A-R8-I-L-D-A-2pyr-I-MB-cpa-V-W-NH2
Take B14: the binding result was “no binding”.

B15: FP0571c Isomer 2 (peptide)
peptide: Ac-A[R8]ILDA[2Pal]I[MB(6)][2Thi]VW-NH2
modifications: staple 2-9; not fully specified; printed as Ac-A-R8-I-L-D-A-2pyr-I-MB-thi-V-W-NH2
Consider B15, for which the binding result was “no binding”.

B16: FP0567c Isomer 2 (peptide)
peptide: Ac-A[R8]ILDA[2Pal]I[MB(6)][Nva]VW-NH2
modifications: staple 2-9; not fully specified; printed as Ac-A-R8-I-L-D-A-2pyr-I-MB-Nva-V-W-NH2
For B16, the binding result was “no binding”.
For Ac-A[R8]ILDA[2Pal]I[MB″]WVW-NH2 (staple 2-9; not fully specified; printed as Ac-A-R8-I-L-D-A-2pyr-I-MB-W-V-W-NH2) [FP0563c Isomer 2] the value was “no binding”.

B17: FP0575c Isomer 1 (peptide)
peptide: Ac-A[R8]ILDA[2Pal]I[MB(4)][Tyr(OMe)]VW-NH2
modifications: staple 2-9; not fully specified; printed as Ac-A-R8-I-L-D-A-2pyr-I-MB-MeY-V-W-NH2
Take B17: the binding result is given as “no binding”.

B18: FP0569c Isomer 2 (peptide)
peptide: Ac-A[R8]ILDA[2Pal]I[MB(6)][Ala(2-furyl)]VW-NH2
modifications: staple 2-9; not fully specified; printed as Ac-A-R8-I-L-D-A-2pyr-I-MB-fur-V-W-NH2
B18: the binding result is on record as “no binding”.
